Results as given in US7919292B2, “Producing hydrogen by heterologous expression of a type II NAD (P)H dehydrogenase in Chlamydomonas” (Commissariat a l'Energie Atomique, priority 2004, dated 2011).
Read-outs that look alike come from different tables or passages of the source.

B1: Agrobacterium NDH-II: type II NAD(P)H dehydrogenase from Agrobacterium tumefaciens, SEQ ID NO: 2, purified with 6His tag (protein, listed as Agrobacterium tumefaciens)
chain: MQEHHVVVVGGGFGGLQLVHGLEGAPVRITLIDRRNHHLFQPLLYQVATTALATSEIAWPIRHLYRDRKEVTTLLAEVTGVDRAARTVQLNSGQVIGFDTLVLATGARHAYFGHDEWERSAPGLKTLEDATTIRRRLLLAFERAELATSEEERQALLTFVIIGAGPTGVEMAGMIAELAHRALPAEFRNVDTRKTRVLLVEAGPRVLPVFTEDLSTYAKEALEKLGVEVLLGTPVTACTDEGVTVGETYYPCRTVVWAAGVQASPAAKWLNAAGDRAGRVIVGPQLHLEDDADIFVIGDTAAVNQENGKPVPGIAPAAKQQGAYVAKVIKARLEGKPIPAPFRYSHQGNLATIGKRAAVIDFGRFKLKGVLAWWIWGLAHIYFLIGTRSRLAVAWSWLWIYLSGQHSARLITQKETLKDEA
modifications: 6His tag

Experiments:
[1] = target: Agrobacterium tumefaciens NDH-II (Agrobacterium fabrum (Agrobacterium tumefaciens), UniProt Q7CY19); assay: biochemical
Protocol: The activity of the Agrobacterium tumefaciens NDH-II was assayed using membranes from an E. coli strain deficient in NDH-I and NDH-II (ndh::tet; nuoB::nptl).
The cells were then collected by centrifugation (15 min, 3200×g) and washed twice with 10 ml of solution containing 200 mM Tris-Cl, pH 8, 2.5 mM EDTA and 0.2 mM PMSF. They were then ruptured by passing them twice through a French press at the pressure of 16 000 psi.
The membrane fraction was recovered by centrifugation (30 min, 48 500×g) and resuspended in 200 μl of analysis buffer (50 mM of phosphate buffer, pH 7.5, and 150 mM NaCl).
The O2 consumption of the E. coli ANN0222 membranes was measured by means of a Clark electrode (DW2/2, Hansatech, King's Lynn, England). After addition of the purified enzyme, this method made it possible to determine its specific activity. […]
In order to measure only the membrane-linked respiratory oxidase activity, catalase (1000 U/ml) and superoxide dismutase (SOD) (500 U/ml) were added to the reaction mixture. […] The inhibition kinetics were determined in the presence of 200 μM of NADH or of 2 mM of NADPH.

E. coli strain ANN.0222 = assay: Complementation-growth test of NDH-deficient E. coli; type: cell-based; details: M9 + mannitol
Protocol: The functionality of the Agtundh2 protein in vivo in a heterologous host was tested by determining its capacity to restore the growth of a mutant E. coli strain, ANN.0222, deficient in NDH-1 and in NDH-2. This strain grows normally on LB medium, but is incapable of growing on minimum medium M9 supplemented with mannitol as the sole carbon source.
The E. coli strain ANN.0222 was chemically transformed (CaCl2) with the plasmid pSDN2Ag6H. The transformants were selected on LB agar medium (supplemented with 1% tryptone, 0.5% of yeast extract and 0.5% NaCl, pH 7) containing ampicillin (100 μg/ml). The transformants and the strain of origin were cultured until the middle of the exponential phase at 37° C. in liquid LB medium containing ampicillin (100 μg/ml). The cells were rinsed with sterile M9 medium, supplemented with mannitol as the sole carbon source (1× M9 salts, 2×10^−3 M MgSO4, 10^−4 M CaCl2, 0.4% mannitol). The cells were then diluted in M9 medium/mannitol and inoculated on a solid M9/mannitol/agar medium containing ampicillin and various concentrations of IPTG. The Petri dishes were incubated at 37° C. for 2 days. As a control, the same cells were inoculated in parallel on dishes containing LB agar medium containing ampicillin and various concentrations of IPTG, and then incubated at 37° C. overnight. […]

Chlamydomonas thylakoids = assay: Photo-induced DNP-INT-sensitive oxygen uptake of Chlamydomonas thylakoids (electron transport from NAD(P)H to the photosynthetic chain); type: biochemical, Chlamydomonas reinhardtii
Protocol: (§1) A culture of 200 ml of Chlamydomonas reinhardtii (wild-type 137c) was sampled in the exponential growth phase (approximately 5×10^6 cells·ml^−1), and then centrifuged (5 min, 1000×g). The cells were washed in 35 mM HEPES-NaOH buffer (pH 7.2), resuspended in 10 ml of lysis buffer (50 mM tricine-NaOH, pH 8, 10 mM NaCl, 5 mM MgCl2, 1% BSA, 1 mM benzamidine and 1 mM PMSF) and stored in the cold and in the dark for the following steps.
The suspension was passed through a French press twice, at 2000 psi. The lysate was first centrifuged (5 min, 4° C., 500×g) in order to remove the unlysed cells, and the thylakoid membranes were then pelleted at 10 000×g for 10 min and resuspended in 250 to 500 μl of analysis buffer (50 mM tricine-NaOH, pH 7.2, 10 mM NaCl and 5 mM MgCl2).
In order to quantify this effect of the Agrobacterium NDH-II on the electron flow from NAD(P)H to the acceptors of PSI, oxygen consumption measurements were carried out in the presence of methyl viologen (an acceptor of PSI), of DCMU (an inhibitor of PSII) and of an NADH (200 μM) or NADPH (2 mM) electron donor.
The Chlamydomonas thylakoids (50 μl, corresponding to 85 μg·ml^−1 of chlorophyll) are placed in a Clark electrode containing 900 μl of analysis buffer (50 mM tricine-NaOH, pH 7.2, 10 mM NaCl and 5 mM MgCl2, 25 μM DCMU, 50 μM methyl viologen, SOD (500 U·ml^−1), catalase (1000 U·ml^−1), 4 μM of myxothiazol and 800 μM of SHAM (salicylhydroxamic acid). The latter two compounds are added in order to inhibit respiratory O2 uptake.
Under these conditions, the fraction of the photo-induced oxygen uptake sensitive to DNP-INT (2-iodo-6-isopropyl-3-methyl-2′,4,4′-trinitrodiphenyl ether; 10 μM), an inhibitor of cytochrome b6f, is proportional to the electron transport between the NAD(P)H and the photosynthetic chain.

[2] = tested on: E. coli ANN0222 membranes; assay: Membrane NADH dehydrogenase activity of E. coli ANN0222 expressing Agtundh2 (O2 uptake); type: biochemical
Protocol: Two batches of E. coli ANN.0222 membrane fractions were prepared, from a culture of the control strain on LB medium and from a culture of the strain having incorporated the plasmid pSDN2Ag6H, cultured on LB medium in the presence of 0.1 mM IPTG. The cultures were carried out until an optical density of 1 at 600 nm was obtained. […] The cells were then ruptured by passing them through a French press twice, at 16 000 psi. The membrane fraction, collected by centrifugation (30 min, 4° C., 48,500×g), was taken up in 200 μl of buffer B (50 mM phosphate buffer, pH 7.5 and 150 mM NaCl).
The results are illustrated by FIG. 10B, which represents the O2 uptake, in the presence of NADH, of E. coli ANN0222 membranes prepared from the reference strain (control) and from the strain expressing Agtundh2.
To determine the catalytic efficiency of Agtundh2 expressed in E. coli, the specific activity was estimated from the amounts determined by Western blotting.
On the basis of the relative intensities of the signals obtained for the purified Agtundh2 protein and for the membrane fractions, the amount of Agtundh2 protein in the experiments illustrated by FIG. 10B was estimated at 0.6 μg protein. The maximum O2 uptakes under these conditions are thus estimated at 13.2/0.6=22 nmol O2 min^−1·μg^−1 protein, i.e. 44 nmol NADH min^−1·μg^−1 protein.

[3] = Activity of wild-type and E201Q modified protein with NADH and NADPH; type: biochemical; details: FIG. 12
Protocol: The affinity of the modified protein for NADH and NADPH was determined.
The results are illustrated in FIG. 12.

[4] = tested on: Chlamydomonas reinhardtii plastoquinones; assay: Plastoquinone reduction measured by chlorophyll fluorescence on thylakoid membranes; type: biochemical; details: NDH-II 1.5 μg·ml^−1, 200 μM NADH, anaerobic
Protocol: The plastoquinone-reducing activity by the Agrobacterium NDH-II was analyzed by measuring chlorophyll fluorescence. In the presence of a weak nonactinic illumination, the measurement of chlorophyll fluorescence provides an indication of the plastoquinone redox state.
as §1
The suspension was passed through a French press twice, at 2000 psi. […]
The photosystem II fluorescence was measured using a modulated light fluorimeter (PAM 101-103, Walz, Effeltrich, Germany).
A nonactinic modulated light (650 nm, 1.6 kHz) was used to determine the level of chlorophyll fluorescence F0. The maximum level of the chlorophyll fluorescence Fm was measured under a saturating flash of 1 second (approximately 1000 μmol photons·m^−2·s^−1). […]

[5] = tested on: E. coli ANN0222 membranes; assay: Enzymatic activity of purified NDH-II on bacterial membranes (O2 consumption, Clark electrode); type: biochemical; details: 25° C.; for Km: physiological pH
Protocol: In the next experiment, the capacity of this enzyme to transport electrons to the respiratory chain of E. coli was determined.

| Molecule | IC50 [1] [µM] | growth on minimal medium (E. coli strain ANN.0222; absence of IPTG) | growth on minimal medium (E. coli strain ANN.0222; induction with 0.1 mM IPTG) | electron transport, NADH as donor (Chlamydomonas thylakoids; 1.5 μg purified NDH-II added, NADH 200 μM, without enzyme 21) | electron transport, NADPH as donor (Chlamydomonas thylakoids; 1.5 μg purified NDH-II added, NADPH 2 mM, without enzyme 20) | stimulation factor of electron transport, NADH (Chlamydomonas thylakoids; NADH to thylakoid plastoquinones) | stimulation factor of electron transport, NADPH (Chlamydomonas thylakoids; NADPH to thylakoid plastoquinones) | specific activity as NADH ([2]; Agtundh2 expressed in E. coli membranes) | maximum O2 uptake (specific activity) ([2]; Agtundh2 expressed in E. coli membranes, protein amount estimated by Western blotting at 0.6 μg) | O2 uptake of membranes on addition of NADH ([2]; strain transformed with pSDN2Ag6H, 0.1 mM IPTG, control strain none detected) | activity with 200 μM NADH compared with 200 μM NADPH [3] | increase in chlorophyll fluorescence (plastoquinone reduction) versus natural enzyme alone [4] | Km ([5]; read-out: Km for NADH) [µM] | Km ([5]; read-out: Km for NADPH) [µM] | maximum activity (Vmax) ([5]; purified enzyme plus E. coli ANN0222 membranes, pH 7.5) |
| --- | --- | --- | --- | --- | --- | --- | --- | --- | --- | --- | --- | --- | --- | --- | --- |
| c1ccc2c(c1)[I+]c1ccccc1-2 [DPI, diphenylene iodonium] | 10 | – | – | – | – | – | – | – | – | – | – | – | – | – | – |
| B1 | – | partial complementation | restored | 67 nmol·min^−1·mg^−1 chlorophyll | 45 nmol·min^−1·mg^−1 chlorophyll | approximately 3 | approximately 2 | 44 nmol NADH min^−1·μg^−1 protein | 22 nmol O2 min^−1·μg^−1 protein | considerable O2 uptake | clearly greater activity with 200 μM NADH | more rapid and more intense | 10 | 50 | 5 μmol O2·min^−1·mg^−1 protein |
